Source: PMC6650474, “Plasmodium myosin A drives parasite invasion by an atypical force generating mechanism” (Nature Communications, 2019)
Substitutions are numbered along the chain they refer to. Numbers in names are those of the source.

B1: Full-length PfMyoA (Plasmodium falciparum myosin A) heavy chain, wild type, co-expressed with the light chains PfMTIP and PfELC (complex)
chain 1: MAVTNEEIKTASKIVRRVSNVEAFDKSGSVFKGYQIWTDISPTIENDPNIMFVKCVVQQGSKKEKLTVVQIDPPGTGTPYDIDPTHAWNCNSQVDPMSFGDIGLLNHTNIPCVLDFLKHRYLKNQIYTTAVPLIVAINPYKDLGNTTNEWIRRYRDTADHTKLPPHVFTCAREALSNLHGVNKSQTIIVSGESGAGKTEATKQIMRYFASSKSGNMDLRIQTAIMAANPVLEAFGNAKTIRNNNSSRFGRFMQLVISHEGGIRYGSVVAFLLEKSRIITQDDNERSYHIFYQFLKGANSTMKSKFGLKGVTEYKLLNPNSTEVSGVDDVKDFEEVIESLKNMELSESDIEVIFSIVAGILTLGNVRLIEKQEAGLSDAAAIMDEDMGVFNKACELMYLDPELIKREILIKVTVAGGTKIEGRWNKNDAEVLKSSLCKAMYEKLFLWIIRHLNSRIEPEGGFKTFMGMLDIFGFEVFKNNSLEQLFINITNEMLQKNFVDIVFERESKLYKDEGISTAELKYTSNKEVINVLCEKGKSVLSYLEDQCLAPGGTDEKFVSSCATNLKENNKFTPAKVASNKNFIIQHTIGPIQYCAESFLLKNKDVLRGDLVEVIKDSPNPIVQQLFEGQVIEKGKIAKGSLIGSQFLNQLTSLMNLINSTEPHFIRCIKPNENKKPLEWCEPKILIQLHALSILEALVLRQLGYSYRRTFEEFLYQYKFVDIAAAEDSSVENQNKCVNILKLSGLSESMYKIGKSMVFLKQEGAKILTKIQREKLVEWENCVSVIEAAILKHKYKQKVNKNIPSLLRVQAHIRKKMVAQ
chain 2: MKQECNVCYFNLPDPESTLGPYDNELNYFTWGPGFEYEPEPQRKPLSIEESFENSEESEESVADIQQLEEKVDESDVRIYFNEKSSGGKISIDNASYNARKLGLAPSSIDEKKIKELYGDNLTYEQYLEYLSICVHDKDNVEELIKMFAHFDNNCTGYLTKSQMKNILTTWGDALTDQEAIDALNAFSSEDNIDYKLFCEDILQ
chain 3: MASDMEEKFREAFILFSSCSDHIEMYKFFELMNSFGIILTNDEKAALPNDINMDYWLNFAKKHYNYEQPFKHINNVNEQNTNVQIKIDNFLGIMKALDTRLTESDLNILLQITNPENKSTLNLKTVSQKLTESI
modifications: phosphoserine at 19 (96 ± 1% of the peptides); biotin on the biotin carboxyl carrier protein segment
B2: ΔN version of full-length PfMyoA heavy chain (residues Ala2 through Ser19 removed), co-expressed wit (complex)
chain 1: MNVEAFDKSGSVFKGYQIWTDISPTIENDPNIMFVKCVVQQGSKKEKLTVVQIDPPGTGTPYDIDPTHAWNCNSQVDPMSFGDIGLLNHTNIPCVLDFLKHRYLKNQIYTTAVPLIVAINPYKDLGNTTNEWIRRYRDTADHTKLPPHVFTCAREALSNLHGVNKSQTIIVSGESGAGKTEATKQIMRYFASSKSGNMDLRIQTAIMAANPVLEAFGNAKTIRNNNSSRFGRFMQLVISHEGGIRYGSVVAFLLEKSRIITQDDNERSYHIFYQFLKGANSTMKSKFGLKGVTEYKLLNPNSTEVSGVDDVKDFEEVIESLKNMELSESDIEVIFSIVAGILTLGNVRLIEKQEAGLSDAAAIMDEDMGVFNKACELMYLDPELIKREILIKVTVAGGTKIEGRWNKNDAEVLKSSLCKAMYEKLFLWIIRHLNSRIEPEGGFKTFMGMLDIFGFEVFKNNSLEQLFINITNEMLQKNFVDIVFERESKLYKDEGISTAELKYTSNKEVINVLCEKGKSVLSYLEDQCLAPGGTDEKFVSSCATNLKENNKFTPAKVASNKNFIIQHTIGPIQYCAESFLLKNKDVLRGDLVEVIKDSPNPIVQQLFEGQVIEKGKIAKGSLIGSQFLNQLTSLMNLINSTEPHFIRCIKPNENKKPLEWCEPKILIQLHALSILEALVLRQLGYSYRRTFEEFLYQYKFVDIAAAEDSSVENQNKCVNILKLSGLSESMYKIGKSMVFLKQEGAKILTKIQREKLVEWENCVSVIEAAILKHKYKQKVNKNIPSLLRVQAHIRKKMVAQ
chain 2: B1 chain 2
chain 3: B1 chain 3
modifications: biotin on the biotin carboxyl carrier protein segment
B3: Full-length PfMyoA heavy chain S19A (phospho-null), co-expressed with the light chains PfMTIP and PfELC (complex)
chain 1: B1 chain 1 with S19A
chain 2: B1 chain 2
chain 3: B1 chain 3
modifications: biotin on the biotin carboxyl carrier protein segment
B4: Full-length PfMyoA heavy chain K764E (charge reversal in the converter), co-expressed with the light chains PfMTIP and PfELC (complex)
chain 1: B1 chain 1 with K764E
chain 2: B1 chain 2
chain 3: B1 chain 3
modifications: biotin on the biotin carboxyl carrier protein segment

Target: Skeletal muscle actin (chicken, UniProt P68139 1-377)
Assay: cell-based or functional assay

| Binder | Km for skeletal actin of the actin-activated ATPase activity (Michaelis-Menten fit, 30 °C, 5 mM KCl) [µM] |
| --- | --- |
| B1 | 30.3 |
| B2 | 7.34 |
| B3 | 8.5 |
| B4 | 18.2 |
